Legend:
[1] = molecular target: cytochrome c oxidase (complex IV) (rat (endogenous in rat liver mitoplasts)); conditions: for Amax of the cytochrome c oxidase reaction, rat liver mitoplasts without cytochrome c: scale: μg atom of the oxygen/min per 1 mg of the protein
[2] = molecular target: ubiquinol–cytochrome c reductase (complex III) (rat (endogenous in rat liver mitoplasts)); conditions: for Amax of the succinate:cytochrome c reductase reaction, rat liver mitoplasts without cytochrome c: scale: μmol of the cyt c /min × mg of the protein

Amax(mut)/Amax(wt) of the cytochrome c oxidase reaction [1] | Km of the cytochrome c oxidase reaction, rat liver mitoplasts without cytochrome c [1] | Amax of the cytochrome c oxidase reaction, rat liver mitoplasts without cytochrome c [1] | Amax(mut)/Amax(wt) of the succinate:cytochrome c reductase reaction [2] | Km of the succinate:cytochrome c reductase reaction, rat liver mitoplasts without cytochrome c [2] | Amax of the succinate:cytochrome c reductase reaction, rat liver mitoplasts without cytochrome c [2] | Substance
86.7% | 6.47 μM of cyt c | 0.636 | 19.5% | 20.7 μM of cyt c | 0.024 | horse cytochrome c I75G/G77R/T78I (from UniProt P00004 1-105) (natural protein)
97.8% | 6.19 μM of cyt c | 0.717 | 8.1% | 1.24 μM of cyt c | 0.01 | horse cytochrome c K79V/I81L/F82R (from UniProt P00004 1-105) (natural protein)
61.8% | 5.31 μM of cyt c | 0.453 | 3.2% | 8.94 μM of cyt c | 0.004 | horse cytochrome c T78A/K79A/I81A/F82T (from UniProt P00004 1-105) (natural protein)

More lines, now with the values behind:

Substance | Amax(mut)/Amax(wt) of the cytochrome c oxidase reaction [1] | Km of the cytochrome c oxidase reaction, rat liver mitoplasts without cytochrome c [1] | Amax of the cytochrome c oxidase reaction, rat liver mitoplasts without cytochrome c [1] | Amax(mut)/Amax(wt) of the succinate:cytochrome c reductase reaction [2] | Km of the succinate:cytochrome c reductase reaction, rat liver mitoplasts without cytochrome c [2] | Amax of the succinate:cytochrome c reductase reaction, rat liver mitoplasts without cytochrome c [2]
horse cytochrome c I81L/F82S/A83S/G84A (from UniProt P00004 1-105) (natural protein) | 92.1% | 5.77 μM of cyt c | 0.675 | 44.7% | 20.7 μM of cyt c | 0.055
horse cytochrome c I81Y/A83Y/G84N (from UniProt P00004 1-105) (natural protein) | 23.6% | 5 μM of cyt c | 0.173 | 13% | 24.7 μM of cyt c | 0.016
horse cytochrome c T78A/K79A/I81A/F82T/T89A (from UniProt P00004 1-105) (natural protein) | 92.3% | 5.31 μM of cyt c | 0.677 | 2.4% | 5.08 μM of cyt c | 0.003
horse cytochrome c T78N/K79Y/M80I/I81M/F82N (from UniProt P00004 1-105) (natural protein) | 38.6% | 4.96 μM of cyt c | 0.283 | 6.5% | 11 μM of cyt c | 0.008
horse cytochrome c T78S/K79P (from UniProt P00004 1-105) (natural protein) | 47.5% | 5.04 μM of cyt c | 0.348 | 3.2% | 17.4 μM of cyt c | 0.004
wild-type horse cytochrome c (from UniProt P00004 1-105) (natural protein) |  | 5.4 μM of cyt c | 0.733 |  | 20.9 μM of cyt c | 0.123
